Test results: article PMC10990141

Biological target: F-actin from rabbit skeletal muscle G-actin (rabbit) (UniProt P68135)
Assay: cryoEM images and 2D image averages; 0.83 uM full-length myosin-5a, 3.6 uM calmodulin, 2.1 uM F-actin, 0.20 mM ATP, 95 mM KCl, 48 uM MgCl2, 0.12 mM EGTA, 10 mM MOPS pH 7.0, 22 °C; applied within 10 s to a lacey carbon grid and flash frozen

- percent of the added myosin attached to actin: < 10%
Substance: full-length mouse myosin-5a, melanocyte-specific isoform, with calmodulin (from UniProt P0DP23 1-149) (complex)
